# Assay results from patent publication US20210380703A1 (RIGEL PHARMACEUTICALS, published 2021).
# What was measured:
# human ACVR2A = molecular target: T1, human ACVR2A (human, UniProt P27037 20-135, limits assumed); assay: ELISA
# T1 construct: also called activin receptor, type II A
# Summary of the method: (§1)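 mAb binding by ELISA; antigens: hu ACVR2A, mu ACVR2A; pos ctrl biotinylated goat anti-hu kappa LC; neg ctrl hu Fc.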
# mouse ACVR2A = mouse ACVR2A (mouse, UniProt P27038 20-135, limits assumed); assay: ELISA
# mouse ACVR2A, sequence (P27038 20-135 limits assumed): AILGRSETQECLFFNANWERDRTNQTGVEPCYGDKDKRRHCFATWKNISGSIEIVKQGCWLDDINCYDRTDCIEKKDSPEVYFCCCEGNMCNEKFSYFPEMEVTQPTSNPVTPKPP
# Summary of the method: as §1
# [1] = molecular target: T2, biotinylated goat anti-human kappa light chain; assay: ELISA, positive control
# T2 construct: positive control of the ELISA
# Summary of the method: as §1
# Note: test concentration or dose not given here.
# T1 sequence (P27037 20-135 limits assumed): as the sequence (P27038 20-135 limits assumed) above, with R20K, I73V counted along it
Binder,optical density (human ACVR2A),optical density (mouse ACVR2A),optical density [1]
"369_B03 (antibody, V domains shown, Group I) VH: EVQLLESGGGLVQPGGSLRLSCAASGFTFSSYGMHWVRQAPGKGLEWVAGINYNGGYTSYADSVKGRFTISRDNSKNTLYLQMNSLRAEDTAVYYCARAANWHDTALDYWGQGTLVTVSS VL: DIQMTQSPSSLSASVGDRVTITCRASQSILTYVNWYQQKPGKAPKLVIYAATSLASGVPSRFSGSGSGTDFTLTISSLQPEDFATYYCQQSYELPLTFGGGTKVEIK",3.32 OD,3.31 OD,3.52 OD
"369_H03 (antibody, V domains shown, Group I) VH: EVQLLESGGGLVQPGGSLRLSCAASGFTFSSYSMHWVRQAPGKGLEWVASINYNSGYKSYADSVKGRFTISRDNSKNTLYLQMNSLRAEDTAVYYCARAANWHDTALDYWGQGTLVTVSS VL: DIQMTQSPSSLSASVGDRVTITCRASQSIVSYLNWYQQKPGKAPKLLIYATTSRASGVPSRFSGSGSGTDFTLTISSLQPEDFATYYCQQSYDTPLTFGGGTKVEIK",2.83 OD,3.08 OD,3.47 OD
"369_B08 (antibody, V domains shown, Group II) VH: EVQLLESGGGLVQPGGSLRLSCAASGFTFDSYGMHWVRQAPGKGLEWVSSINYNGGYTSYADSVKGRFTISRDNSKNTLYLQMNSLRAEDTAVYYCARAATWHDTHLDYWGQGTLVTVSS VL: DIQMTQSPSSLSASVGDRVTITCRASQSILSYVNWYQQKPGKAPKLLIYAATSRASGVPSRFSGSGSGTDFTLTISSLQPEDFATYYCQQSYESPLTFGGGTKVEIK",2.75 OD,2.88 OD,3.29 OD
"369_C11 (antibody, V domains shown, Group II) VH: EVQLLESGGGLVQPGGSLRLSCAASGFTFSDYGMHWVRQAPGKGLEWVAGINYNGGYTGYADSVKGRFTISRDNSKNTLYLQMNSLRAEDTAVYYCARAATWHDTHLDYWGQGTLVTVSS VL: DIQMTQSPSSLSASVGDRVTITCRASQSILSYLNWYQQKPGKAPKLVIYAATSRASGVPSRFSGSGSGTDFTLTISSLQPEDFATYYCQQSYDTPLTFGGGTKVEIK",2.8 OD,2.91 OD,3.48 OD
"369_B07 (antibody, V domains shown, Group II) VH: EVQLLESGGGLVQPGGSLRLSCAASGFTFDSYGMHWVRQAPGKGLEWVANINYNGGYKSYADSVKGRFTISRDNSKNTLYLQMNSLRAEDTAVYYCARAATWHDTHLDYWGQGTLVTVSS VL: DIQMTQSPSSLSASVGDRVTITCRASQSIVSYVNWYQQKPGKAPKLVIYAATSLASGVPSRFSGSGSGTDFTLTISSLQPEDFATYYCQQSYDLPLTFGGGTKVEIK",2.63 OD,2.9 OD,3.39 OD
"369_C06 (antibody, V domains shown, Group II) VH: EVQLLESGGGLVQPGGSLRLSCAASGFTFSSYSMHWVRQAPGKGLEWVSSINYNGGYKSYADSVKGRFTISRDNSKNTLYLQMNSLRAEDTAVYYCARAATWHDTHLDYWGQGTLVTVSS VL: DIQMTQSPSSLSASVGDRVTITCRASQSILSYVNWYQQKPGKAPKLLIYAATSRASGVPSRFSGSGSGTDFTLTISSLQPEDFATYYCQQSYDSPLTFGGGTKVEIK",2.75 OD,3.06 OD,3.17 OD
"369_C09 (antibody, V domains shown, Group II) VH: EVQLLESGGGLVQPGGSLRLSCAASGFTFSSYGMHWVRQAPGKGLEWVSSINYNGGYTGYADSVKGRFTISRDNSKNTLYLQMNSLRAEDTAVYYCARAATWHDTHLDYWGQGTLVTVSS VL: DIQMTQSPSSLSASVGDRVTITCRASQSIVSYLNWYQQKPGKAPKLVIYAATSRHSGVPSRFSGSGSGTDFTLTISSLQPEDFATYYCQQSYDLPLTFGGGTKVEIK",2.88 OD,3.05 OD,3.41 OD
"369_G10 (antibody, V domains shown, Group I) VH: EVQLLESGGGLVQPGGSLRLSCAASGFTFSSYGMHWVRQAPGKGLEWVASINYNGGYTSYADSVKGRFTISRDNSKNTLYLQMNSLRAEDTAVYYCARAANWHDTALDYWGQGTLVTVSS VL: DIQMTQSPSSLSASVGDRVTITCRASQSILSYLNWYQQKPGKAPKLVIYAATSRASGVPSRFSGSGSGTDFTLTISSLQPEDFATYYCQQSYDSPLTFGGGTKVEIK",3.37 OD,3.29 OD,3.49 OD
"369_E03 (antibody, V domains shown, Group II) VH: EVQLLESGGGLVQPGGSLRLSCAASGFTFSSYGMHWVRQAPGKGLEWVAGINYNGGYTSYADSVKGRFTISRDNSKNTLYLQMNSLRAEDTAVYYCARAATWHDTHLDYWGQGTLVTVSS VL: DIQMTQSPSSLSASVGDRVTITCRASQSILSYVNWYQQKPGKAPKLLIYAATSLASGVPSRFSGSGSGTDFTLTISSLQPEDFATYYCQQSYENPLTFGGGTKVEIK",3.15 OD,3.36 OD,3.37 OD
"370_B01 (antibody, V domains shown, Group I) VH: EVQLLESGGGLVQPGGSLRLSCAASGFTFDDYGMHWVRQAPGKGLEWVSGINYNGGYKSYADSVKGRFTISRDNSKNTLYLQMNSLRAEDTAVYYCARAANWHDTALDYWGQGTLVTVSS VL: DIQMTQSPSSLSASVGDRVTITCRASQSILSYVNWYQQKPGKAPKLLIYVASSRASGVPSRFSGSGSGTDFTLTISSLQPEDFATYYCQQSYSLPLTFGGGTKVEIK",3.38 OD,3.47 OD,3.75 OD

# Other lines, results leading:
optical density (human ACVR2A),optical density (mouse ACVR2A),optical density [1],Binder
2.26 OD,2.66 OD,3.48 OD,"370_D06 (antibody, V domains shown, Group I) VH: EVQLLESGGGLVQPGGSLRLSCAASGFTFSSYGMNWVRQAPGKGLEWVASINYNGGYTSYADSVKGRFTISRDNSKNTLYLQMNSLRAEDTAVYYCARAANWHDTHLDYWGQGTLVTVSS VL: DIQMTQSPSSLSASVGDRVTITCRASQSIISYLNWYQQKPGKAPKLVIYAATSLASGVPSRFSGSGSGTDFTLTISSLQPEDFATYYCQQSYSSPLTFGGGTKVEIK"
2.88 OD,3.09 OD,3.37 OD,"370_B06 (antibody, V domains shown, Group II) VH: EVQLLESGGGLVQPGGSLRLSCAASGFTFSSYGMHWVRQAPGKGLEWVAGINYNGGYTSYADSVKGRFTISRDNSKNTLYLQMNSLRAEDTAVYYCARAATWHDTHLDYWGQGTLVTVSS VL: DIQMTQSPSSLSASVGDRVTITCRASQSIVSYVNWYQQKPGKAPKLVIYAATSRASGVPSRFSGSGSGTDFTLTISSLQPEDFATYYCQQSYETPLTFGGGTKVEIK"
1.91 OD,2.2 OD,3.48 OD,"370_B07 (antibody, V domains shown, Group II) VH: EVQLLESGGGLVQPGGSLRLSCAASGFTFSSYGMHWVRQAPGKGLEWVANINYNSGYKSYADSVKGRFTISRDNSKNTLYLQMNSLRAEDTAVYYCARAATWHDTHLDYWGQGTLVTVSS VL: DIQMTQSPSSLSASVGDRVTITCRASQSILTYVNWYQQKPGKAPKLLIYAATSRHSGVPSRFSGSGSGTDFTLTISSLQPEDFATYYCQQSYSSPLTFGGGTKVEIK"
3.39 OD,3.44 OD,3.66 OD,"370_E12 (antibody, V domains shown, Group II) VH: EVQLLESGGGLVQPGGSLRLSCAASGFTFDSYGMHWVRQAPGKGLEWVAGINYNGGYTSYADSVKGRFTISRDNSKNTLYLQMNSLRAEDTAVYYCARAATWHDTHLDYWGQGTLVTVSS VL: DIQMTQSPSSLSASVGDRVTITCRASQSILSYVNWYQQKPGKAPKLLIYAATSRASGVPSRFSGSGSGTDFTLTISSLQPEDFATYYCQQSYENPLTFGGGTKVEIK"
2.94 OD,3.14 OD,3.61 OD,"370_H05 (antibody, V domains shown, Group II) VH: EVQLLESGGGLVQPGGSLRLSCAASGFTFSSYGMHWVRQAPGKGLEWVSNINYNGGYTSYADSVKGRFTISRDNSKNTLYLQMNSLRAEDTAVYYCARAATWHDTHLDYWGQGTLVTVSS VL: DIQMTQSPSSLSASVGDRVTITCRASQSILSYLNWYQQKPGKAPKLLIYAASSLQSGVPSRFSGSGSGTDFTLTISSLQPEDFATYYCQQSDSLPLTFGGGTKVEIK"
1.82 OD,2.12 OD,3.51 OD,"370_G04 (antibody, V domains shown, Group I) VH: EVQLLESGGGLVQPGGSLRLSCAASGFTFSSYGMHWVRQAPGKGLEWVSGINYNGGYTGYADSVKGRFTISRDNSKNTLYLQMNSLRAEDTAVYYCARAANWHDTALDYWGQGTLVTVSS VL: DIQMTQSPSSLSASVGDRVTITCRASQSILSYVNWYQQKPGKAPKLLIYAATSRASGVPSRFSGSGSGTDFTLTISSLQPEDFATYYCQQSYSTPLTFGGGTKVEIK"
2.94 OD,3.24 OD,3.65 OD,"370_H08 (antibody, V domains shown, Group I) VH: EVQLLESGGGLVQPGGSLRLSCAASGFTFSSYGMHWVRQAPGKGLEWVASINYNGGYTSYADSVKGRFTISRDNSKNTLYLQMNSLRAEDTAVYYCARAANWHDTHLDYWGQGTLVTVSS VL: DIQMTQSPSSLSASVGDRVTITCRASQSILSYVNWYQQKPGKAPKLLIYAATSRHSGVPSRFSGSGSGTDFTLTISSLQPEDFATYYCQQSYSLPLTFGGGTKVEIK"
3.05 OD,3.24 OD,3.6 OD,"371_A05 (antibody, V domains shown, Group II) VH: EVQLLESGGGLVQPGGSLRLSCAASGFTFSSYGMHWVRQAPGKGLEWVSNINYNGGYKSYADSVKGRFTISRDNSKNTLYLQMNSLRAEDTAVYYCARAATWHDTHLDYWGQGTLVTVSS VL: DIQMTQSPSSLSASVGDRVTITCRASQSILTYLNWYQQKPGKAPKLLIYAATSRASGVPSRFSGSGSGTDFTLTISSLQPEDFATYYCQQSDNLPLTFGGGTKVEIK"
1.01 OD,1.17 OD,3.53 OD,"371_A04 (antibody, V domains shown, Group I) VH: EVQLLESGGGLVQPGGSLRLSCAASGFTFDSYGMNWVRQAPGKGLEWVSSINYNSGYTGYADSVKGRFTISRDNSKNTLYLQMNSLRAEDTAVYYCARAANWHDTALDYWGQGTLVTVSS VL: DIQMTQSPSSLSASVGDRVTITCRASQSILTYLNWYQQKPGKAPKLLIYAVTSRASGVPSRFSGSGSGTDFTLTISSLQPEDFATYYCQQSYDTPLTFGGGTKVEIK"
